[ ]: non-standard residue; d: D form. The star is where a group is joined. Palmitoyl = CCCCCCCCCCCCCCCC(=O)*; Octanoyl = CCCCCCCC(=O)*; Dap = NC[C@H](N)C(=O)O; Aib = CC(C)(N)C(=O)O; Inp = O=C(O)C1CCNCC1; Octyl = CCCCCCCC*

The record followed here is patent US9657062B2, “Ghrelin analogues” (Zealand Pharma A/S, priority 2012, dated 2017).

This assay addresses human growth hormone secretagogue receptor type 1a (human, UniProt Q92847 1-366). Put plainly: cell-based or functional assay.

Chain of human growth hormone secretagogue receptor type 1a (Q92847 whole entry): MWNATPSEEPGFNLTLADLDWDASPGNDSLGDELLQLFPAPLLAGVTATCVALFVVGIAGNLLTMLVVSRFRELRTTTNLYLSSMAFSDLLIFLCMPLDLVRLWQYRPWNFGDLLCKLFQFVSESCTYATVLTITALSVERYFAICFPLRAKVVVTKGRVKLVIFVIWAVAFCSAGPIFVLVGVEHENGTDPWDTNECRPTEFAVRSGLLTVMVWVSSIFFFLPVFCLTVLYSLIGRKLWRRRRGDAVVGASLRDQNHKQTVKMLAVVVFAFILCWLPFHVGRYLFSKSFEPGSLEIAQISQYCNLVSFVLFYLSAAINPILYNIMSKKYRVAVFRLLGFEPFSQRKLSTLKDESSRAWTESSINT

B1: H-PS-Dap(N-octanoyl)-FLS-NH2 (peptide)
peptide: H-PS[Dap](Octanoyl)FLS-NH2
SMILES: CCCCCCCC(=O)NC[C@H](NC(=O)[C@H](CO)NC(=O)[C@@H]1CCCN1)C(=O)N[C@@H](Cc1ccccc1)C(=O)N[C@@H](CC(C)C)C(=O)N[C@@H](CO)C(N)=O
As for B1, the “EC50 (nM); Ca2+ induction in HEK293 cells stably expressing the human ghrelin receptor” value (shortened to “EC50 (nM); Ca2+ induction”) is 1.2 nM.

B2: H-[DPro]-S-S(O-octyl)-FLSPEHQRVQQRKESKKPPAKLQPR-OH (peptide)
peptide: XSSFLSPEHQRVQQRKESKKPPAKLQPR
modifications: DPro at position 1; Ser(O-octyl) at position 3; C-terminal -OH
Turning to B2, the “EC50 (nM); Ca2+ induction” value turned out to be 0.77 nM.

B3: H-PS-S(O-octyl)-FLSPEHQRVQQRKESKKPPAKLQPR-OH (peptide)
peptide: H-PSS(Octyl)FLSPEHQRVQQRKESKKPPAKLQPR-OH
In the case of B3, the “EC50 (nM); Ca2+ induction” value was 0.579 nM.

B4: H-Inp-S-S(O-octyl)-FLSPEHQRV-K(hexadecanoyl)-QRKESKKPPAKLQPR-OH (peptide)
peptide: H-[Inp]SS(Octyl)FLSPEHQRVK(Palmitoyl)QRKESKKPPAKLQPR-OH
SMILES: CCCCCCCCCCCCCCCC(=O)NCCCC[C@H](NC(=O)[C@@H](NC(=O)[C@H](CCCNC(=N)N)NC(=O)[C@H](CCC(N)=O)NC(=O)[C@H](Cc1c[nH]cn1)NC(=O)[C@H](CCC(=O)O)NC(=O)[C@@H]1CCCN1C(=O)[C@H](CO)NC(=O)[C@H](CC(C)C)NC(=O)[C@H](Cc1ccccc1)NC(=O)[C@H](COCCCCCCCC)NC(=O)[C@H](CO)NC(=O)C1CCNCC1)C(C)C)C(=O)N[C@@H](CCC(N)=O)C(=O)N[C@@H](CCCNC(=N)N)C(=O)N[C@@H](CCCCN)C(=O)N[C@@H](CCC(=O)O)C(=O)N[C@@H](CO)C(=O)N[C@@H](CCCCN)C(=O)N[C@@H](CCCCN)C(=O)N1CCC[C@H]1C(=O)N1CCC[C@H]1C(=O)N[C@@H](C)C(=O)N[C@@H](CCCCN)C(=O)N[C@@H](CC(C)C)C(=O)N[C@@H](CCC(N)=O)C(=O)N1CCC[C@H]1C(=O)N[C@@H](CCCNC(=N)N)C(=O)O
Take B4: the “EC50 (nM); Ca2+ induction” value came to 2.55 nM.

B5: H-PS-Dap(N-octanoyl)-FLSPEHQRVQQRKESKKPPAKLQPR-NH2 (peptide)
peptide: PSSFLSPEHQRVQQRKESKKPPAKLQPR
modifications: Dap(N-octanoyl) at position 3; C-terminal amide (-NH2)
Regarding B5, the “EC50 (nM); Ca2+ induction” value stood at 0.193 nM.

B6: H-Inp-S-S(O-octyl)-FLSPEHQRVQQRKESKKPPAKL-K(hexadecanoyl)-PR-OH (peptide)
peptide: H-[Inp]SS(Octyl)FLSPEHQRVQQRKESKKPPAKLK(Palmitoyl)PR-OH
SMILES: CCCCCCCCCCCCCCCC(=O)NCCCC[C@H](NC(=O)[C@H](CC(C)C)NC(=O)[C@H](CCCCN)NC(=O)[C@H](C)NC(=O)[C@@H]1CCCN1C(=O)[C@@H]1CCCN1C(=O)[C@H](CCCCN)NC(=O)[C@H](CCCCN)NC(=O)[C@H](CO)NC(=O)[C@H](CCC(=O)O)NC(=O)[C@H](CCCCN)NC(=O)[C@H](CCCNC(=N)N)NC(=O)[C@H](CCC(N)=O)NC(=O)[C@H](CCC(N)=O)NC(=O)[C@@H](NC(=O)[C@H](CCCNC(=N)N)NC(=O)[C@H](CCC(N)=O)NC(=O)[C@H](Cc1c[nH]cn1)NC(=O)[C@H](CCC(=O)O)NC(=O)[C@@H]1CCCN1C(=O)[C@H](CO)NC(=O)[C@H](CC(C)C)NC(=O)[C@H](Cc1ccccc1)NC(=O)[C@H](COCCCCCCCC)NC(=O)[C@H](CO)NC(=O)C1CCNCC1)C(C)C)C(=O)N1CCC[C@H]1C(=O)N[C@@H](CCCNC(=N)N)C(=O)O
Take B6: the “EC50 (nM); Ca2+ induction” value is 1.18 nM.

B7: H-[DPro]-S-S(O-octyl)-FLSPEHQRVQQRKES-K(hexadecanoyl)-KPPAKLQPR-OH (peptide)
peptide: XSSFLSPEHQRVQQRKESKKPPAKLQPR
modifications: DPro at position 1; Ser(O-octyl) at position 3; K(hexadecanoyl) at position 19; C-terminal -OH
Take B7: the “EC50 (nM); Ca2+ induction” value stood at 4.63 nM.

B8: H-Inp-S-S(O-octyl)-FLSPEHQRVQQRKES-K(hexadecanoyl)-KPPAKLQPR-OH (peptide)
peptide: H-[Inp]SS(Octyl)FLSPEHQRVQQRKESK(Palmitoyl)KPPAKLQPR-OH
SMILES: CCCCCCCCCCCCCCCC(=O)NCCCC[C@H](NC(=O)[C@H](CO)NC(=O)[C@H](CCC(=O)O)NC(=O)[C@H](CCCCN)NC(=O)[C@H](CCCNC(=N)N)NC(=O)[C@H](CCC(N)=O)NC(=O)[C@H](CCC(N)=O)NC(=O)[C@@H](NC(=O)[C@H](CCCNC(=N)N)NC(=O)[C@H](CCC(N)=O)NC(=O)[C@H](Cc1c[nH]cn1)NC(=O)[C@H](CCC(=O)O)NC(=O)[C@@H]1CCCN1C(=O)[C@H](CO)NC(=O)[C@H](CC(C)C)NC(=O)[C@H](Cc1ccccc1)NC(=O)[C@H](COCCCCCCCC)NC(=O)[C@H](CO)NC(=O)C1CCNCC1)C(C)C)C(=O)N[C@@H](CCCCN)C(=O)N1CCC[C@H]1C(=O)N1CCC[C@H]1C(=O)N[C@@H](C)C(=O)N[C@@H](CCCCN)C(=O)N[C@@H](CC(C)C)C(=O)N[C@@H](CCC(N)=O)C(=O)N1CCC[C@H]1C(=O)N[C@@H](CCCNC(=N)N)C(=O)O
As for B8, the “EC50 (nM); Ca2+ induction” value came out at 2.52 nM.

B9: H-PS-Dap(N-octanoyl)-FLSPEHQRVQQRKESKKPPA-NH2 (peptide)
peptide: H-PS[Dap](Octanoyl)FLSPEHQRVQQRKESKKPPA-NH2
SMILES: CCCCCCCC(=O)NC[C@H](NC(=O)[C@H](CO)NC(=O)[C@@H]1CCCN1)C(=O)N[C@@H](Cc1ccccc1)C(=O)N[C@@H](CC(C)C)C(=O)N[C@@H](CO)C(=O)N1CCC[C@H]1C(=O)N[C@@H](CCC(=O)O)C(=O)N[C@@H](Cc1c[nH]cn1)C(=O)N[C@@H](CCC(N)=O)C(=O)N[C@@H](CCCNC(=N)N)C(=O)N[C@H](C(=O)N[C@@H](CCC(N)=O)C(=O)N[C@@H](CCC(N)=O)C(=O)N[C@@H](CCCNC(=N)N)C(=O)N[C@@H](CCCCN)C(=O)N[C@@H](CCC(=O)O)C(=O)N[C@@H](CO)C(=O)N[C@@H](CCCCN)C(=O)N[C@@H](CCCCN)C(=O)N1CCC[C@H]1C(=O)N1CCC[C@H]1C(=O)N[C@@H](C)C(N)=O)C(C)C
For the molecule B9, the “EC50 (nM); Ca2+ induction” value turned out to be 0.136 nM.

B10: H-Aib-S-S(O-octyl)-FLSPEHQRVQQRKES-K(hexadecanoyl)-KPPAKLQPR-OH (peptide)
peptide: H-[Aib]SS(Octyl)FLSPEHQRVQQRKESK(Palmitoyl)KPPAKLQPR-OH
SMILES: CCCCCCCCCCCCCCCC(=O)NCCCC[C@H](NC(=O)[C@H](CO)NC(=O)[C@H](CCC(=O)O)NC(=O)[C@H](CCCCN)NC(=O)[C@H](CCCNC(=N)N)NC(=O)[C@H](CCC(N)=O)NC(=O)[C@H](CCC(N)=O)NC(=O)[C@@H](NC(=O)[C@H](CCCNC(=N)N)NC(=O)[C@H](CCC(N)=O)NC(=O)[C@H](Cc1c[nH]cn1)NC(=O)[C@H](CCC(=O)O)NC(=O)[C@@H]1CCCN1C(=O)[C@H](CO)NC(=O)[C@H](CC(C)C)NC(=O)[C@H](Cc1ccccc1)NC(=O)[C@H](COCCCCCCCC)NC(=O)[C@H](CO)NC(=O)C(C)(C)N)C(C)C)C(=O)N[C@@H](CCCCN)C(=O)N1CCC[C@H]1C(=O)N1CCC[C@H]1C(=O)N[C@@H](C)C(=O)N[C@@H](CCCCN)C(=O)N[C@@H](CC(C)C)C(=O)N[C@@H](CCC(N)=O)C(=O)N1CCC[C@H]1C(=O)N[C@@H](CCCNC(=N)N)C(=O)O
B10: the “EC50 (nM); Ca2+ induction” value came to 2.9 nM.

B11: H-Aib-S-S(O-octyl)-FLSPEHQRVQQRKESKKPPAKLQPR-OH (peptide)
peptide: H-[Aib]SS(Octyl)FLSPEHQRVQQRKESKKPPAKLQPR-OH
SMILES: CCCCCCCCOC[C@H](NC(=O)[C@H](CO)NC(=O)C(C)(C)N)C(=O)N[C@@H](Cc1ccccc1)C(=O)N[C@@H](CC(C)C)C(=O)N[C@@H](CO)C(=O)N1CCC[C@H]1C(=O)N[C@@H](CCC(=O)O)C(=O)N[C@@H](Cc1c[nH]cn1)C(=O)N[C@@H](CCC(N)=O)C(=O)N[C@@H](CCCNC(=N)N)C(=O)N[C@H](C(=O)N[C@@H](CCC(N)=O)C(=O)N[C@@H](CCC(N)=O)C(=O)N[C@@H](CCCNC(=N)N)C(=O)N[C@@H](CCCCN)C(=O)N[C@@H](CCC(=O)O)C(=O)N[C@@H](CO)C(=O)N[C@@H](CCCCN)C(=O)N[C@@H](CCCCN)C(=O)N1CCC[C@H]1C(=O)N1CCC[C@H]1C(=O)N[C@@H](C)C(=O)N[C@@H](CCCCN)C(=O)N[C@@H](CC(C)C)C(=O)N[C@@H](CCC(N)=O)C(=O)N1CCC[C@H]1C(=O)N[C@@H](CCCNC(=N)N)C(=O)O)C(C)C
In the case of B11, the “EC50 (nM); Ca2+ induction” value turned out to be 0.46 nM.

B12: H-PS-Dap(N-octanoyl)-FLSPEHSRVSSRKESKKPPAKLSPR-NH2 (peptide)
peptide: H-PS[Dap](Octanoyl)FLSPEHSRVSSRKESKKPPAKLSPR-NH2
SMILES: CCCCCCCC(=O)NC[C@H](NC(=O)[C@H](CO)NC(=O)[C@@H]1CCCN1)C(=O)N[C@@H](Cc1ccccc1)C(=O)N[C@@H](CC(C)C)C(=O)N[C@@H](CO)C(=O)N1CCC[C@H]1C(=O)N[C@@H](CCC(=O)O)C(=O)N[C@@H](Cc1c[nH]cn1)C(=O)N[C@@H](CO)C(=O)N[C@@H](CCCNC(=N)N)C(=O)N[C@H](C(=O)N[C@@H](CO)C(=O)N[C@@H](CO)C(=O)N[C@@H](CCCNC(=N)N)C(=O)N[C@@H](CCCCN)C(=O)N[C@@H](CCC(=O)O)C(=O)N[C@@H](CO)C(=O)N[C@@H](CCCCN)C(=O)N[C@@H](CCCCN)C(=O)N1CCC[C@H]1C(=O)N1CCC[C@H]1C(=O)N[C@@H](C)C(=O)N[C@@H](CCCCN)C(=O)N[C@@H](CC(C)C)C(=O)N[C@@H](CO)C(=O)N1CCC[C@H]1C(=O)N[C@@H](CCCNC(=N)N)C(N)=O)C(C)C
As for B12, the “EC50 (nM); Ca2+ induction” value is 0.224 nM.

B13: H-PS-S(O-octyl)-FLSPEHQRVQQRKES-K(hexadecanoyl)-KPPAKLQPR-OH (peptide)
peptide: H-PSS(Octyl)FLSPEHQRVQQRKESK(Palmitoyl)KPPAKLQPR-OH
SMILES: CCCCCCCCCCCCCCCC(=O)NCCCC[C@H](NC(=O)[C@H](CO)NC(=O)[C@H](CCC(=O)O)NC(=O)[C@H](CCCCN)NC(=O)[C@H](CCCNC(=N)N)NC(=O)[C@H](CCC(N)=O)NC(=O)[C@H](CCC(N)=O)NC(=O)[C@@H](NC(=O)[C@H](CCCNC(=N)N)NC(=O)[C@H](CCC(N)=O)NC(=O)[C@H](Cc1c[nH]cn1)NC(=O)[C@H](CCC(=O)O)NC(=O)[C@@H]1CCCN1C(=O)[C@H](CO)NC(=O)[C@H](CC(C)C)NC(=O)[C@H](Cc1ccccc1)NC(=O)[C@H](COCCCCCCCC)NC(=O)[C@H](CO)NC(=O)[C@@H]1CCCN1)C(C)C)C(=O)N[C@@H](CCCCN)C(=O)N1CCC[C@H]1C(=O)N1CCC[C@H]1C(=O)N[C@@H](C)C(=O)N[C@@H](CCCCN)C(=O)N[C@@H](CC(C)C)C(=O)N[C@@H](CCC(N)=O)C(=O)N1CCC[C@H]1C(=O)N[C@@H](CCCNC(=N)N)C(=O)O
For the molecule B13, the “EC50 (nM); Ca2+ induction” value was 2.88 nM.

B14: H-PS-Dap(N-octanoyl)-FLSP-NH2 (peptide)
peptide: H-PS[Dap](Octanoyl)FLSP-NH2
SMILES: CCCCCCCC(=O)NC[C@H](NC(=O)[C@H](CO)NC(=O)[C@@H]1CCCN1)C(=O)N[C@@H](Cc1ccccc1)C(=O)N[C@@H](CC(C)C)C(=O)N[C@@H](CO)C(=O)N1CCC[C@H]1C(N)=O
Consider B14, for which the “EC50 (nM); Ca2+ induction” value amounted to 0.26 nM.
